Test results from patent US11667697 (VANDERBILT UNIVERSITY, dated 2023).

Experiments:
VACV A33 protein [1] = target: T1, VACV A33 protein (vaccinia virus, UniProt P68617 58-185); assay: purified antigen ELISA
VACV A33 protein [2] = target: T1, VACV A33 protein; assay: lysate ELISA
VACV A33 protein [3] = target: T1, VACV A33 protein; assay: cell-based or functional assay
VACV B5 protein [4] = target: T2, VACV B5 protein (vaccinia virus, UniProt Q01227 20-275); assay: purified antigen ELISA
VACV B5 protein [5] = target: T2, VACV B5 protein; assay: lysate ELISA
VACV B5 protein [6] = target: T2, VACV B5 protein; assay: cell-based or functional assay
VACV L1 protein [7] = target: T3, VACV L1 protein (vaccinia virus, UniProt P07612 1-185); assay: cell-based or functional assay
T3 sequence: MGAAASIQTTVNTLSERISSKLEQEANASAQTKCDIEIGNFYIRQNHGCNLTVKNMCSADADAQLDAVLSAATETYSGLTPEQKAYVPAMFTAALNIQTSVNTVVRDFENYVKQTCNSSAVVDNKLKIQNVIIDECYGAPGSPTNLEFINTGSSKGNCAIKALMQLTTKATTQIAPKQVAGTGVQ

VACV L1 protein [8] = target: T3, VACV L1 protein; assay: purified antigen ELISA
VACV D8 protein [9] = target: T4, VACV D8 protein (vaccinia virus, UniProt P04195 1-261); assay: cell-based or functional assay
T4 sequence: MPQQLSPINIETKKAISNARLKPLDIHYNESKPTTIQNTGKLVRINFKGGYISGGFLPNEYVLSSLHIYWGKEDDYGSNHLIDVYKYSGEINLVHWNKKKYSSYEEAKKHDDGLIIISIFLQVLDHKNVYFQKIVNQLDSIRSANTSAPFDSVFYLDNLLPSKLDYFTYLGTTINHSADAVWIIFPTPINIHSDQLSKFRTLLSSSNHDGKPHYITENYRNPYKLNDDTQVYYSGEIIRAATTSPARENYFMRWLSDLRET

VACV D8 protein [10] = target: T4, VACV D8 protein; assay: purified antigen ELISA
VACV D8 protein [11] = target: T4, VACV D8 protein; assay: lysate ELISA
VACV H3 protein = target: T5, VACV H3 protein (vaccinia virus, UniProt P07240 1-278); assay: lysate ELISA
T5 sequence: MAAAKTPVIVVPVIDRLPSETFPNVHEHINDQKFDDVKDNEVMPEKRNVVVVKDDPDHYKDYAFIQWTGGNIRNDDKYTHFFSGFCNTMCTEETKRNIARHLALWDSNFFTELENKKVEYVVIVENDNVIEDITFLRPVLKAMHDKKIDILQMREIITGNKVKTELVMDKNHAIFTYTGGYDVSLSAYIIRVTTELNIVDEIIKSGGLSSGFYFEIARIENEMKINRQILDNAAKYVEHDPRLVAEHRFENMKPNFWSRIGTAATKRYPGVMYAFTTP

VACV A27 protein [12] = target: T6, VACV A27 protein (vaccinia virus, UniProt P11258 1-110); assay: cell-based or functional assay
T6 sequence: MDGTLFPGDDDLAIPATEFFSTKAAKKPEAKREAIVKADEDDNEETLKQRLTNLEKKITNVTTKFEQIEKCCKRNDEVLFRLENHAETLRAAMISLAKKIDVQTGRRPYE

VACV A27 protein [13] = target: T6, VACV A27 protein; assay: purified antigen ELISA
VACV A27 protein [14] = target: T6, VACV A27 protein; assay: lysate ELISA

B1: VACV-80 (antibody, V domains shown)
VH: EVQLVESGGGLVQPGESLKISCAATGFTFSSYWMHWVRQAPGKGLVWVSGINSDGSSTSYADSVKGRFTIARDNAKGTLYLQMNSLRAEDTAVYYCARVGAVRIAAAAPDYWGQGTLVTVSS
VL: not shown
notes: human IgG1, anti-A33
EC50 (VACV A33 protein [1]): 0.065 µg/mL
EC50 (VACV A33 protein [2]): > 69 µg/mL

B2: VACV-22 (antibody, V domains shown)
VH: QVQLVESGGGVVQPGRSLRLSCAASGFTFSNSGMHWVRQAPGKGLEWVAVIWFDGTNKYYADSVKGRFTISRDNSKNTLYLQMNSLRAEDTAVYYCARVPCGGDCYSGYLQHWGQGTLVTVSS
VL: AIVMTQSPATLSVSPGERATLSCRASQSVSSTLAWYQQKPGQAPRLLIYGASTKATGIPARFSGSGSGTEFTLTISSLQSEDFAVYYCQHYNNWPPLLTFGGGTKVDIK
notes: human IgG1, anti-A33
PRNT Emax, VACV EV+C' (VACV A33 protein [3]): 87%
PRNT IC50, VACV EV+C' (VACV A33 protein [3]): 9.7 µg/mL
EC50 (VACV A33 protein [1]): 0.03 µg/mL
EC50 (VACV A33 protein [2]): > 0.008 µg/mL

B3: MPXV-43 (antibody, V domains shown)
VH: QVQLVQSGAEVKKPGASVKVSCKASGYTFTKYTIHWVRQAPGQRLEWVGGIYAGYGNTRYSQKFQGRVTITRDTSASTAYMELSSLRSEDTAVYFCARDFEDFDSWTGYYSWLHWGQGTLVTVSS
VL: EIVLTQSPGTLSLSPGERATLSCRASQSVSSTYLAWYQQKPGQAPRLLIYGASSRATGIPDRFSGSGSGTDFTLTITRLEPEDFAMYFCQQYDSSPSITFGQGTRLEIK
notes: human IgG1, anti-B5
EC50 (VACV B5 protein [4]): 10.1 µg/mL
EC50 (VACV B5 protein [5]): 0.011 µg/mL

B4: MPXV-56 (antibody, V domains shown)
VH: QVQLQQSGPGLVKPSQTLSLTCAISGDSVSSNSAAWIWIRQSPSRGLEWLGTTYYRSEWYSDYPASVKSRVTINADTSKNQFSLQLNSVTPEDTAVYYCARITVGYNSPHLRVTRGWLDPWGPGNP
VL: not shown
notes: human IgG2, anti-A33
PRNT Emax, VACV EV+C' (VACV A33 protein [3]): 56%
PRNT IC50, VACV EV+C' (VACV A33 protein [3]): 0.16 µg/mL
EC50 (VACV A33 protein [1]): 0.06 µg/mL
EC50 (VACV A33 protein [2]): > 0.07 µg/mL

B5: MPXV-25 (antibody, V domains shown)
V domain 1: QVQLVESGGGVVQPGRSLKISCAASGFTFSDSGLHWVRQAPGKGLECVAFIWYDGSTKYYADSVKGRFTISRDNSRNTLYLQMKSLRAEDTAVYYCARELGYCSGGTCYSMGAFDIWGQGTLVTVSQ
V domain 2: QSVLTQPASVSGSPGQSITISCTGTSSDVGSYNLVSWYQQHPGKAPKLMIYEVSKRPSGVSNRFSGSKSDNTASLTISGLQAEDEADYYCCSYVGSSTSVFGGGTQVTVL
notes: human IgG1, anti-B5
PRNT Emax, VACV EV+C' (VACV B5 protein [6]): 77%
PRNT IC50, VACV EV+C' (VACV B5 protein [6]): 0.02 µg/mL
EC50 (VACV B5 protein [4]): 0.19 µg/mL
EC50 (VACV B5 protein [5]): 0.066 µg/mL

B6: VACV-34 (antibody, V domains shown)
VH: QVQLVESGGGLVQPGRSLRLSCAASGFTFDDYAMHWVRQAPGKGLEWVSGLSWNSGSIGYADSVKGRFTISRDNAKNSLYLQMNSLRAEDTALYYCAKETEKYYYDSSGYDYWGQGTLVTVSS
VL: EIVLTQSPGTLSLSPGERATLSCRASQSVSSIYLAWYQQKPGQAPRLLIYGASSRATGIPDRFSGSGSGTDFTLTISRLEPEDFAVYYCQQYGSRGTFGQGTKLEIK
notes: human IgG1, anti-L1
PRNT Emax, VACV MV (VACV L1 protein [7]): 76%
PRNT Emax, VACV MV+C' (VACV L1 protein [7]): 78%
PRNT IC50, VACV MV (VACV L1 protein [7]): 3.3 µg/mL
PRNT IC50, VACV MV+C' (VACV L1 protein [7]): 0.96 µg/mL
EC50 (VACV L1 protein [8]): 0.04 µg/mL

B7: VACV-33 (antibody, V domains shown)
VH: QLQLQESGPGLVKPSETLSLTCTVSGGSISSGGYYWGWIRQPPGKGLEWIASIYYSGSTYYNPSLKSRVTISVDTSKTQFSLKLSSVTAADTAVYYCARQSSSTGGFHYWGQGTLVTVSS
VL: QSVLTQPPSVSGAPGQRVTISCTGSSSNIGAGYDVHWYQHLPGTAPKLLIYGNSNRPSGVPDRFSGSKSGTSASLAITGLQAEDEANYYCQSYDSSLSGREVFGGGTQLTVL
notes: human IgG1, anti-L1
PRNT Emax, VACV MV (VACV L1 protein [7]): 56%
PRNT Emax, VACV MV+C' (VACV L1 protein [7]): 71%
PRNT IC50, VACV MV (VACV L1 protein [7]): 0.3 µg/mL
PRNT IC50, VACV MV+C' (VACV L1 protein [7]): 0.7 µg/mL
EC50 (VACV L1 protein [8]): 0.02 µg/mL

B8: VACV-128 (antibody, V domains shown)
VH: EVQLVQSGAEVKKPGATVKISCKVSGYTFTDYYMHWVQQAPGKGLKWMGLLDPLDGETIYSEKFQGKVTITADTSTDTAYMELSSLRSEDTAVYYCARELTGYLNYWGQGTLVTVSS
VL: DIQMTQSPSSLSASVGDRVTITCRASPGICNYLAWYQHKPGKVPKLLIYAASTLQSGVPSRFTGVGSGTNFTLTINNLPPENVATYYCQKYNSAPHTFGQGTKVDIK
notes: human IgG1, anti-D8
PRNT Emax, VACV MV+C' (VACV D8 protein [9]): 86%
PRNT IC50, VACV MV+C' (VACV D8 protein [9]): 0.5 µg/mL
EC50 (VACV D8 protein [10]): 1.1 µg/mL
EC50 (VACV D8 protein [11]): 0.3 µg/mL

B9: MPXV-2 (antibody, V domains shown)
VH: QVQLVQSGAEVKKPGASVKVSCKTSGYTFTTYAVHWVRQAPGQRLEWMGWINPGDGDTRYAQKFQDRVTISSDTSATTVYMELSSLRSEDTAVYFCARPRASLLRYFDWLFEQWGQETLVTVSS
VL: EIVLTQSPGTLSLSPGDRATLSCGASQSIHHNYVAWYQQRPGQAPRLLIFGASSRATGIPDRFTGSGSGTEFTLTINRLEPEDFAVYYCQQYGNSVPYSFGQGTKVDIK
notes: human IgG1, anti-B5
PRNT Emax, VACV EV+C' (VACV B5 protein [6]): 67%
PRNT IC50, VACV EV+C' (VACV B5 protein [6]): 1 µg/mL
EC50 (VACV B5 protein [4]): 0.03 µg/mL
EC50 (VACV B5 protein [5]): > 6 µg/mL

B10: MPXV-76 (antibody, V domains shown)
VH: EVQLVESGGGLVKPGESLKISCAASGFSFNNAWMNWVRQAPGKGLEWVGRIKTHADGGTTDYAAPVTGRFTISRDDSKNTLSLQMSSLKTEDTAVYYCTTSFTFPRRIFAYWGQGTLV
VL: EIVLTQSPATLSLSPGERATLSCRASQSVSSYLAWYQQKPGQAPRLLIYDTSNRATGIPARFSGSGSGTDFTLTISSLEPEDLAVYYCQLRNSWPPTFGPGTKVDIK
notes: human IgG1, anti-H3
EC50 (VACV H3 protein): 0.008 µg/mL

B11: VACV-302 (antibody, V domains shown)
VH: QLQLQESGPGLVKPSETLSLTCTVSGGSIISSSYYWGWIRQPPGKGLEWLGSIYYSGSTYYNPSLKSRVTISVDTSKNQFSLKVTSVTAADTAVYYCARQISKAAAGSIDYWGQGTLVTVS
VL: not shown
notes: human IgG1, anti-A27
PRNT Emax, VACV MV (VACV A27 protein [12]): 81%
PRNT Emax, VACV MV+C' (VACV A27 protein [12]): 53%
PRNT IC50, VACV MV (VACV A27 protein [12]): 12.3 µg/mL
PRNT IC50, VACV MV+C' (VACV A27 protein [12]): 0.1 µg/mL
EC50 (VACV A27 protein [13]): 0.08 µg/mL
EC50 (VACV A27 protein [14]): 0.01 µg/mL

B12: MPXV-51 (antibody, V domains shown)
VH: QLQLQESGPGLVKPSETLSLSCTVSGGSINSRTYYWGWIRQPPGKGPEWIGTVFHNVSTLYTSSLRSRVTISVDTSKNRFSLKLTSVTAADTAVYFCGRLTPRNLFRGTLVRWVDPWGQGILVTVSS
VL: EIVLAQSPGTLSLSPGERATLSCRASHNLNSNYLAWYQQKPGQAPRLLIYGASSRATGIPDRFTGSGSGTDFTLTISRLEPEDFAVYYCQQYAGSLTFGGGTKVDIK
notes: human IgG1, anti-A33
PRNT Emax, VACV EV+C' (VACV A33 protein [3]): 50%
PRNT IC50, VACV EV+C' (VACV A33 protein [3]): 0.1 µg/mL
EC50 (VACV A33 protein [1]): 0.04 µg/mL
EC50 (VACV A33 protein [2]): 0.05 µg/mL

B13: MPXV-26 (antibody, V domains shown)
VH: QVQLVQSGGGLIQPGGSLRLSCVVSGFNVATNYMSWVRQAPGKGLEWVSVIYSGGSTYYADSVKGRFTISRDNSKNTVFLQMNSLRPEDTAAYYCAKGGGLGLDYWGQGTLVTVSS
VL: QSALTQPPSASGSPGQSVTITCTGSSSDVGGYNYVSWYQQHPGKAPKVVIYEVNKRPSGVPHRFSGSKSGNTASLTVSGLQAEDEADYYCSSYAGTETVAFGGGTKLTVL
notes: human IgG1, anti-L1
PRNT Emax, VACV MV (VACV L1 protein [7]): 95%
PRNT Emax, VACV MV+C' (VACV L1 protein [7]): 80%
PRNT IC50, VACV MV (VACV L1 protein [7]): 0.3 µg/mL
PRNT IC50, VACV MV+C' (VACV L1 protein [7]): 0.7 µg/mL
EC50 (VACV L1 protein [8]): 0.05 µg/mL

B14: MPXV-12 (antibody, V domains shown)
VH: QVQLQQWGAGLLKPSETLSLTCAVYGGSFTNYYWSWIRQFPGKGLEYIGEIDHSGSANYNPSLKSRVTISLDTSKNQFSLRLSSVTAADTAVYFCARDVYGSGTYYWFDPWGQGTL
VL: DIQMTQSPTSLSASVGDRVTITCRASQRISSHLNWYQQKPGKAPKLLIYVASSLQSGVPSRFSGSGSGTDYTLTISSLQPEDFATYFCQQSYTTPYTFGQGTNLQMK
notes: human IgG3, anti-B5
EC50 (VACV B5 protein [4]): 0.1 µg/mL
EC50 (VACV B5 protein [5]): 5.85 µg/mL
